From US20240376185A1 (SMIVET B V, published 2024)

B1: SVT06-GS2-SVA12M2-H6 (bispecific antibody)
chain: QVQLQESGGGSVQAGGSLRLSCTASELSYDDYTIAWFRRAAGEGRVEDGEGVASITKSYDRAYDNKINYGHSVKGRFTISRDNAKNTVYLQMTDLLPSDTAVYYCALDITPPGGVGASLTEGFLFDYWGQGTQVTVSSGGGGSGGGSEVQLVESGGGLVQAGGSLRLSCAASGRTFSYYPMAWFRQAPGQEREFVAAIIGADTTYYADSLKGRFTISRDNAKNMVYLQMNSLKPEDTAVYYCAARNTYWSDVYYREGQYTNWGQGTQVTVSSHHHHHH
B2: SVG13L (VHH)
VHH: QVQLQESGGGLVQPGGSLRLSCEASGFTFDDYGMSWVRQAPGKGLEWVSSLTPNGGSTYYADSVKGRFTISRDNAKNTLYLQMNSLKPEDTALYYCAKNSYYGAMDYWGKGTLVTVSS
notes: yeast-produced
B3: SVT15-3FW4M-GS2-SVA12M2-H6 (bispecific antibody)
chain: QVQLQESGGGLVQTGGSLRLSCRASGRAFANYHFGWFRQAPGKDREFVASISWKGGSTYYANFALGRFTSSVDRAESSVYLQMSGLTPEDTATYYCAAHDGGDWNYHTGMDYWGQGTQVTVSSGGGGSGGGSEVQLVESGGGLVQAGGSLRLSCAASGRTFSYYPMAWFRQAPGQEREFVAAIIGADTTYYADSLKGRFTISRDNAKNMVYLQMNSLKPEDTAVYYCAARNTYWSDVYYREGQYTNWGQGTQVTVSSHHHHHH
B4: SVA12L (VHH)
VHH: QVQLQESGGGLVQAGGSLRLSCAASGRTFSYYPMAWFRQAPGQEREFVAAIIGADTTYYADSLKGRFTISRDNAKNMVYLQMNSLKPEDTAVYYCAARNTYWSDVYYREGQYTNWGQGTQVTVSS
B5: SVT16-L123Q-GS2-SVG13M4-H6 (bispecific antibody)
chain: QVQLQESGGGSVQAGDSLRLSCAASGRTISNYAMGWFRQAPGKQREFVAAISRSDNTYYTDSVKGRFTISRDNAKNTLYLQMNSLKPEETAVYYCAADPNLMYESKWKYRALEAWGQGTQVTVSSGGGGSGGGSEVQLVESGGGLVQPGGSLRLSCEASGFTFDDYGMSWVRQAPGKGLEWVSSLTPNGGSTYYADSVKGRFTISRDNAKNTLYLQMNSLKPEDTALYYCAKNSYYGAMDYWGQGTQVTVSSHHHHHH

Key:
[1] = target: T1, tetanus neurotoxin (TeNT), authentic tetanus holotoxin (Clostridium tetani, UniProt P04958 2-1315); test: GT1b-TeNT inhibition ELISA
[2] = target: T1, tetanus neurotoxin (TeNT), authentic …; test: GT1b-TeNT inhibition ELISA; remark: listed apart in the source
dog albumin (dog Alb) [3] = target: T2, dog albumin (dog Alb) (dog, UniProt P49822 25-608); test: ELISA: coated dog Alb, anti-his6 PO
T2 construct: also called Canine albumin

dog albumin (dog Alb) [4] = target: T2, dog albumin (dog Alb); test: ELISA: coated dog Alb, anti-his6 PO; remark: listed apart in the source
[5] = target: T1, tetanus neurotoxin (TeNT), authentic …; test: ELISA: directly coated TeNT, anti-his6 PO
[6] = target: T1, tetanus neurotoxin (TeNT), authentic …; test: ELISA: directly coated TeNT, anti-his6 PO; remark: listed apart in the source
[7] = target: T1, tetanus neurotoxin (TeNT), authentic …; test: ELISA: directly coated TeNT, goat anti-llama Ig PO
[8] = target: T1, tetanus neurotoxin (TeNT), authentic …; test: ELISA: directly coated TeNT, goat anti-llama Ig PO; remark: listed apart in the source
[9] = target: T1, tetanus neurotoxin (TeNT), authentic …; test: BLI (Octet Red96): biotinylated TeNT on SA sensor, SDA as analyte
[10] = target: T3, horse albumin (horse Alb) (horse, UniProt P35747 25-607); test: bridging ELISA: cAb-TT2-captured TeNT, SDA, biotinylated horse Alb, StrepPO
[11] = target: T3, horse albumin (horse Alb); test: as above; remark: listed apart in the source
[12] = target: T1, tetanus neurotoxin (TeNT), authentic …; test: bridging ELISA: coated TeNT, SDA, biotinylated TeNT, StrepPO (bivalent binding)
[13] = target: T1, tetanus neurotoxin (TeNT), authentic …; test: as above; remark: listed apart in the source
horse serum albumin = target: T4, horse serum albumin (horse, UniProt P35747 25-607); test: BLI, Octet Red96
T4 construct: mature; also called horse Alb; Equine albumin

Swine albumin = target: T5, Swine albumin (swine, UniProt P08835 25-607); test: BLI (Octet Red96), SDA on Ni-NTA sensor, albumin as analyte
T5 construct: also called Porcine Alb

Horse albumin = target: T6, Horse albumin (horse, UniProt P35747 25-607); test: as above
T6 construct: also called Equine albumin; Equine Alb

Dog albumin = target: T7, Dog albumin (dog, UniProt P49822 25-608); test: as above
T7 construct: also called Canine albumin; Canine Alb

Cat albumin = target: T8, Cat albumin (cat, UniProt P49064 25-608); test: as above
T8 construct: also called Feline albumin; Feline Alb

Row | Binder | minimal absorbance value (GT1b-TeNT inhibition) [1] | Effective SDA Concentration at A450 0.56 [2] | maximal absorbance value (dog albumin (dog Alb) [3]) | Effective SDA Concentration at A450 0.2 (dog albumin (dog Alb) [4]) | maximal absorbance value [5] | Effective SDA Concentration at A450 0.15 [6] | maximal absorbance value [7] | Effective SDA Concentration at A450 0.15 [8] | maximal absorbance value [10] | Effective SDA Concentration at A450 0.7 [11] | maximal absorbance value [12] | Effective SDA Concentration at A450 0.3 [13] | binding result (horse serum albumin) | also measured
1 | B1 | 0.18 A450 | 55 ng/mL | 1.67 A450 | 39 ng/mL | 1.59 A450 | 3.5 ng/mL | 1.21 A450 | 1.1 ng/mL | 1.47 A450 | 1.5 ng/mL | 0.66 A450 | 19 ng/mL | – | Kd [9]: 0.151 nM; koff [9]: 8.9e-05 s⁻¹; kon [9]: 591000 M⁻¹ s⁻¹
2 | B2 | – | – | – | – | – | – | – | – | – | – | – | – | no binding (tested: 100 nM) | –
3 | B3 | 0.15 A450 | 78 ng/mL | 1.55 A450 | 76 ng/mL | 1.35 A450 | 8 ng/mL | 1.36 A450 | 2 ng/mL | 1.34 A450 | 3.9 ng/mL | 0.64 A450 | 33 ng/mL | – | –
4 | B4 | – | – | – | – | – | – | – | – | – | – | – | – | – | Kd (Swine albumin): 159 nM; koff (Swine albumin): 0.0238 s⁻¹; kon (Swine albumin): 150000 M⁻¹ s⁻¹; Kd (Horse albumin): 10.7 nM; koff (Horse albumin): 0.00109 s⁻¹; kon (Horse albumin): 101000 M⁻¹ s⁻¹; Kd (Dog albumin): 271 nM; koff (Dog albumin): 0.0125 s⁻¹; kon (Dog albumin): 45900 M⁻¹ s⁻¹; Kd (Cat albumin): 19 nM; koff (Cat albumin): 0.000737 s⁻¹; kon (Cat albumin): 38800 M⁻¹ s⁻¹
5 | B5 | – | – | – | – | – | – | – | – | – | – | – | – | no binding (tested: 100 nM) | –
